Here are results for three substances from FireProtDB (doi:10.1021/bi034132r).

Several values for one entry are separate records, joined by “and”; a condition that tells them apart may be missing. Equal values may be shown once.

For the data set the following is noted: Saccharomyces cerevisiae (strain ATCC 204508 / S288c), pH 7, 25 °C, GdnHCl, CD, phosphate 0.1 M, reversible: yes.

Cytochrome c isoform 1 wild type, P00044, sequence (P00044 whole entry, canonical isoform): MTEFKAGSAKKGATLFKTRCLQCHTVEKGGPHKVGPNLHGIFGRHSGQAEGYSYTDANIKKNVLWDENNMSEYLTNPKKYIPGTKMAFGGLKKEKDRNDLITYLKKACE
Cytochrome c isoform 1 H39Y, P00044, sequence (P00044 whole entry H39Y, canonical isoform): as the sequence (P00044 whole entry, canonical isoform) above, with H39Y counted along it
Cytochrome c isoform 1 H32Y, P00044, sequence (P00044 whole entry H32Y, canonical isoform): as the sequence (P00044 whole entry, canonical isoform) above, with H32Y counted along it

As for Cytochrome c isoform 1 H32Y, P00044, for the setting “structure 1YCC”, the “ddG of mutation (higher = less stable)” value was 1.82 kcal/mol and 2.1 kcal/mol; the denaturant m value was 2.41 kcal/mol/M and 2.39 kcal/mol/M; the “denaturant midpoint (higher = more stable)” value (“denaturant midpoint” below) is 1.4 M and 1.1 M; the unfolding free energy is 3.54 kcal/mol and 3.2 kcal/mol.

For Cytochrome c isoform 1 H39Y, P00044, for the setting “structure 1YCC”, the “ddG of mutation (higher = less stable)” value is 0.6 kcal/mol, the denaturant m value worked out at 2.87 kcal/mol/M, the “denaturant midpoint” value was 1.6 M and the unfolding free energy was 4.71 kcal/mol.

In the case of “Cytochrome c isoform 1 wild type, P00044”, the denaturant m value was 2.96 kcal/mol/M and 2.94 kcal/mol/M; the “denaturant midpoint” value is 1.8 M; the unfolding free energy is 5.35 kcal/mol and 5.31 kcal/mol.
